According to patent publication US8415393B2, “Anti-bacterial drug targeting of genome maintenance interfaces” (Wisconsin Alumni Research Foundation, priority 2007, dated 2013):
Where no end group is shown, it is not given here. fluorescein = fluorescein moiety attached to the N-terminus of the peptide (N-terminal fluorescein label)

Columns and labels:
Experiment in all cases: fluorescence anisotropy equilibrium binding (Kd,app), ExoI variant titrated into fluorescein-labeled peptide
ExoI Arg338Ala variant = biological target: T1, ExoI Arg338Ala variant (Escherichia coli, UniProt P04995 1-475)
T1 construct: basic ridge residue; also called R338A; Arg338 variant
T1 sequence: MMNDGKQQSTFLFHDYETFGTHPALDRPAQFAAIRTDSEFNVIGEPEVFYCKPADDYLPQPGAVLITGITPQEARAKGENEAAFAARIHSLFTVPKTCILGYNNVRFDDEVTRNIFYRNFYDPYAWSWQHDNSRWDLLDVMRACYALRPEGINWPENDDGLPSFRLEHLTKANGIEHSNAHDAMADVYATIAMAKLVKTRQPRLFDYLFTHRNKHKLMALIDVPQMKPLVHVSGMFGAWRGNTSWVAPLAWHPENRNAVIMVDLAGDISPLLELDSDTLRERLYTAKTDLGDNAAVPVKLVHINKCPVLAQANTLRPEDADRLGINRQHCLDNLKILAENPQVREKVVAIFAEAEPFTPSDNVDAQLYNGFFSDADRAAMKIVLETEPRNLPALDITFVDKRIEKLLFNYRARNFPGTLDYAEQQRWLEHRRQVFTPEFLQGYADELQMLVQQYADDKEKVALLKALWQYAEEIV

ExoI Asp319Ala variant = biological target: T2, ExoI Asp319Ala variant (Escherichia coli, UniProt P04995 1-475)
T2 construct: also called D319A; Asp319 variant
T2 sequence: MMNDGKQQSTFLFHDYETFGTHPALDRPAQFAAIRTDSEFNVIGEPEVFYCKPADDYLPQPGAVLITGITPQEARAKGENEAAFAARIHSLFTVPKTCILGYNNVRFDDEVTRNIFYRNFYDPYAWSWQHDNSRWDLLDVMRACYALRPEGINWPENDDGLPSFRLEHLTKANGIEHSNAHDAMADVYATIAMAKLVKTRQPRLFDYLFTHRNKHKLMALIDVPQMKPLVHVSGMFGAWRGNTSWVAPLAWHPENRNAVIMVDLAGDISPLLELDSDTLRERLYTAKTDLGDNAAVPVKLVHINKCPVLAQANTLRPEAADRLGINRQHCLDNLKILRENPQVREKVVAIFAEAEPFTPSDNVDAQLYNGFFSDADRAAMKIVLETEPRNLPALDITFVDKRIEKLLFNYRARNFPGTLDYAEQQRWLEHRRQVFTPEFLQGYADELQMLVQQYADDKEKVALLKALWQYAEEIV

ExoI Arg148Ala variant = biological target: T3, ExoI Arg148Ala variant (Escherichia coli, UniProt P04995 1-475)
T3 construct: also called R148A; Arg148 variant
T3 sequence: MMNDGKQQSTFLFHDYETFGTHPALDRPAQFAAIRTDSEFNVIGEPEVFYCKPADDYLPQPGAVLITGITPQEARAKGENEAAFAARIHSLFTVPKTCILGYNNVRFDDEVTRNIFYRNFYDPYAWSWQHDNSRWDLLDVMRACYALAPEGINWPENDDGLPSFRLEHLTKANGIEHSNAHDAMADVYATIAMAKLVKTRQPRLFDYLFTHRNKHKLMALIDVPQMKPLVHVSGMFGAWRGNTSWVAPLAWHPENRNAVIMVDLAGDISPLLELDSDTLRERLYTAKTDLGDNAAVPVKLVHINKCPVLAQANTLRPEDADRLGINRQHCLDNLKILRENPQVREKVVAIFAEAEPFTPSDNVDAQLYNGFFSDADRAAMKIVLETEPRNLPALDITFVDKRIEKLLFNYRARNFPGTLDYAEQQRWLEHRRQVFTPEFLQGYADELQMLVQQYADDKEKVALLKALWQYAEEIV

ExoI Gln452Ala variant = biological target: T4, ExoI Gln452Ala variant (Escherichia coli, UniProt P04995 1-475)
T4 construct: helical domain residue; also called Q452A; Gln452 variant
T4 sequence: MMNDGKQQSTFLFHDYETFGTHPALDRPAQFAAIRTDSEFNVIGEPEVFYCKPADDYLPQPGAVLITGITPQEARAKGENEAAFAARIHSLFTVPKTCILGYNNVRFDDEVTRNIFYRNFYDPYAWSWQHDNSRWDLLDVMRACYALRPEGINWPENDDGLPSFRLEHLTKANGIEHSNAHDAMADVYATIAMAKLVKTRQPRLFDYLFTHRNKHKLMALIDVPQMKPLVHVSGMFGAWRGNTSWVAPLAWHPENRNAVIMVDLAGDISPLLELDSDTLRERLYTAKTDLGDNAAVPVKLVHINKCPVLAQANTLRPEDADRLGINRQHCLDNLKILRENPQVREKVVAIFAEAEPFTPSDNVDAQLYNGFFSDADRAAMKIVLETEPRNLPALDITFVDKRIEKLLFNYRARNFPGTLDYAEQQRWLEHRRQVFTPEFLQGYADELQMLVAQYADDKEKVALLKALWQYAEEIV

ExoI Glu318Ala variant = biological target: T5, ExoI Glu318Ala variant (Escherichia coli, UniProt P04995 1-475)
T5 construct: also called E318A; Glu318 variant
T5 sequence: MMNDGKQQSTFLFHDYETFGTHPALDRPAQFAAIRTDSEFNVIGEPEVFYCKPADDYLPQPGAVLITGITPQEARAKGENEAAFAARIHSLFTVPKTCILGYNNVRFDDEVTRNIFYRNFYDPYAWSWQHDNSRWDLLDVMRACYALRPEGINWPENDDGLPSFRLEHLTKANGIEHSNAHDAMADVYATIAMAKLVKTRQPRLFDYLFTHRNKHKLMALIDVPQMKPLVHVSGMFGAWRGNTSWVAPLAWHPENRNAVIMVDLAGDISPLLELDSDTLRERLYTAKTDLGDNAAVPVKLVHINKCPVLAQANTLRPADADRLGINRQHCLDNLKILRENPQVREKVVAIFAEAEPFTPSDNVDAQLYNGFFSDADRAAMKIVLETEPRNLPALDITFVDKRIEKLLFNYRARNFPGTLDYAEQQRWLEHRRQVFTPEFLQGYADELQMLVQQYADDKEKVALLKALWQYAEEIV

Binder: fluorescein-WMDFDDDIPF (also called F-SSB-Ct; F-WT) [fluorescein-labeled SSB C-terminal peptide (fluorescein-WMDFDDDIPF)]
- Kd (ExoI Arg338Ala variant): 398 nM
- Kd (ExoI Asp319Ala variant): 299 nM
- Kd (ExoI Arg148Ala variant): > 1000 nM
- Kd (ExoI Gln452Ala variant): 212 nM
- Kd (ExoI Glu318Ala variant): 80 nM
